Laboratory results taken from PMC4117426.

Target: T1, 6×His-SlmA (E. coli), P0C093
T1 chain: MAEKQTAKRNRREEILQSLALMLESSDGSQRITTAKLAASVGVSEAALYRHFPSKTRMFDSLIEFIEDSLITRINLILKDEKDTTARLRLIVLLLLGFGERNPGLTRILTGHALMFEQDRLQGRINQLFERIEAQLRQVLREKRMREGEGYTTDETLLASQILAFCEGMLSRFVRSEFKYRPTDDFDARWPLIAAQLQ
Assay: BLI; biotinylated SBS17-30mer (50 nM) on streptavidin tips, loaded with 4 µM SlmA or SlmA mutant; FtsZ or variants (4 µM, preincubated with 1 mM GDP) or peptides (up to 320 µM) in solution; 1× Pol buffer, room temperature
Details: remark: other sources report otherwise

Kd: 81 µM
Binder: DYLDIPAFLRKQAD [FtsZ C-terminal tail peptide (Ztail-WT)]
